T1: EsCas13d, nuclease-dead (Eubacterium siraeum, UniProt B0MS50, R295A;H300A;R849A;H854A)
T1 sequence: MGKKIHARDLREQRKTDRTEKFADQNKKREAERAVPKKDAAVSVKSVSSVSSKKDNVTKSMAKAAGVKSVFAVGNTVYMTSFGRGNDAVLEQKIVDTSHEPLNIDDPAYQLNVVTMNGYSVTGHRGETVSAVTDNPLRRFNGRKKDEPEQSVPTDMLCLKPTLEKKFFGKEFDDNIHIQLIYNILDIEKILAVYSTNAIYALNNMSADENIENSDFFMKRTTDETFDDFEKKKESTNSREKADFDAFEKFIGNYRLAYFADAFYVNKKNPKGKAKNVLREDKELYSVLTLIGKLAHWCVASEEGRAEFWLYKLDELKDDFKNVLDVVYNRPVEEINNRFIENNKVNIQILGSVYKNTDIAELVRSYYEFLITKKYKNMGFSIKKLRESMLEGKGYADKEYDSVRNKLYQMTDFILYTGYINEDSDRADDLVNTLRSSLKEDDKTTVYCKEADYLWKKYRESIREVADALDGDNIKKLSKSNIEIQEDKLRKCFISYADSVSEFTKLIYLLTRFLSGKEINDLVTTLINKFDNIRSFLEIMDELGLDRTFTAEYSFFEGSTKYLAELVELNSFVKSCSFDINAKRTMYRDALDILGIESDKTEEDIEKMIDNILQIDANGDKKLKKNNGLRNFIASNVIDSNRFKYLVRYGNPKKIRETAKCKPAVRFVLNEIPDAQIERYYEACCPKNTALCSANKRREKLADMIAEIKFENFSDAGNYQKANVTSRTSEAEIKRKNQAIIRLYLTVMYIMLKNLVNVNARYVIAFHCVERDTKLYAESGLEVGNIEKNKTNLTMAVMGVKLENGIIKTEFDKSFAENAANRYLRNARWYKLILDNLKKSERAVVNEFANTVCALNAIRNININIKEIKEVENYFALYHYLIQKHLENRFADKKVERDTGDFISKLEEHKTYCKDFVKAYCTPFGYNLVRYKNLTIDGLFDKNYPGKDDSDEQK

B1: target 1 A14G,C22U (mixed)
RNA 1: CACCCGUGCAAAAAUGCAGGGGUCUAAAACUGAGCGGAUAACCUCUCUAUGG
RNA 2: GGGAAUGGAUCCACAUCUACGAAUUCGUAUCAUAGAGGGGUUAUCCGCUCACCGAGAUCGGAAGAGCACACGU
B2: target 1 U3A,G13A (mixed)
RNA 1: CACCCGUGCAAAAAUGCAGGGGUCUAAAACUGAGCGGAUAACCUCUCUAUGG
RNA 2: GGGAAUGGAUCCACAUCUACGAAUUCGUACCAUAGAGAAGUUAUCCGCACACCGAGAUCGGAAGAGCACACGU
B3: target 1 C6U,A20U (mixed)
RNA 1: CACCCGUGCAAAAAUGCAGGGGUCUAAAACUGAGCGGAUAACCUCUCUAUGG
RNA 2: GGGAAUGGAUCCACAUCUACGAAUUCGUACCUUAGAGAGGUUAUCUGCUCACCGAGAUCGGAAGAGCACACGU
B4: target 2 MT 5'PFS UUU 3'PFS CUA (mixed)
RNA 1: CACCCGUGCAAAAUUGCAGGGGUCUAAAACCUUCUCCAAAUUGUUUCAUCCU
RNA 2: GGGAAUGGAUCCACAUCUACGAAUUCUUUAGGAUGAAACAAUUUGGAGAAGCUAAGAUCGGAAGAGCACACGU
B5: target 2 MT 5'PFS CUG 3'PFS AGU (mixed)
RNA 1: CACCCGUGCAAAAUUGCAGGGGUCUAAAACCUUCUCCAAAUUGUUUCAUCCU
RNA 2: GGGAAUGGAUCCACAUCUACGAAUUCCUGAGGAUGAAACAAUUUGGAGAAGAGUAGAUCGGAAGAGCACACGU
B6: target 2 MT 5'PFS GUC 3'PFS ACU (mixed)
RNA 1: CACCCGUGCAAAAUUGCAGGGGUCUAAAACCUUCUCCAAAUUGUUUCAUCCU
RNA 2: GGGAAUGGAUCCACAUCUACGAAUUCGUCAGGAUGAAACAAUUUGGAGAAGACUAGAUCGGAAGAGCACACGU
B7: target 2 MT 5'PFS GUC 3'PFS CAC (mixed)
RNA 1: CACCCGUGCAAAAUUGCAGGGGUCUAAAACCUUCUCCAAAUUGUUUCAUCCU
RNA 2: GGGAAUGGAUCCACAUCUACGAAUUCGUCAGGAUGAAACAAUUUGGAGAAGCACAGAUCGGAAGAGCACACGU
B8: target 2 MT 5'PFS UUG 3'PFS AUG (mixed)
RNA 1: CACCCGUGCAAAAUUGCAGGGGUCUAAAACCUUCUCCAAAUUGUUUCAUCCU
RNA 2: GGGAAUGGAUCCACAUCUACGAAUUCUUGAGGAUGAAACAAUUUGGAGAAGAUGAGAUCGGAAGAGCACACGU
B9: target 2 MT 5'PFS AUA 3'PFS AAU (mixed)
RNA 1: CACCCGUGCAAAAUUGCAGGGGUCUAAAACCUUCUCCAAAUUGUUUCAUCCU
RNA 2: GGGAAUGGAUCCACAUCUACGAAUUCAUAAGGAUGAAACAAUUUGGAGAAGAAUAGAUCGGAAGAGCACACGU
B10: target 2 MT 5'PFS GCA 3'PFS CCG (mixed)
RNA 1: CACCCGUGCAAAAUUGCAGGGGUCUAAAACCUUCUCCAAAUUGUUUCAUCCU
RNA 2: GGGAAUGGAUCCACAUCUACGAAUUCGCAAGGAUGAAACAAUUUGGAGAAGCCGAGAUCGGAAGAGCACACGU
B11: target 2 MT 5'PFS CGA 3'PFS ACC (mixed)
RNA 1: CACCCGUGCAAAAUUGCAGGGGUCUAAAACCUUCUCCAAAUUGUUUCAUCCU
RNA 2: GGGAAUGGAUCCACAUCUACGAAUUCCGAAGGAUGAAACAAUUUGGAGAAGACCAGAUCGGAAGAGCACACGU
B12: target 2 MT 5'PFS CGA 3'PFS ACA (mixed)
RNA 1: CACCCGUGCAAAAUUGCAGGGGUCUAAAACCUUCUCCAAAUUGUUUCAUCCU
RNA 2: GGGAAUGGAUCCACAUCUACGAAUUCCGAAGGAUGAAACAAUUUGGAGAAGACAAGAUCGGAAGAGCACACGU
B13: target 2 MT 5'PFS AUA 3'PFS AAA (mixed)
RNA 1: CACCCGUGCAAAAUUGCAGGGGUCUAAAACCUUCUCCAAAUUGUUUCAUCCU
RNA 2: GGGAAUGGAUCCACAUCUACGAAUUCAUAAGGAUGAAACAAUUUGGAGAAGAAAAGAUCGGAAGAGCACACGU
B14: target 2 MT 5'PFS UUG 3'PFS AUU (mixed)
RNA 1: CACCCGUGCAAAAUUGCAGGGGUCUAAAACCUUCUCCAAAUUGUUUCAUCCU
RNA 2: GGGAAUGGAUCCACAUCUACGAAUUCUUGAGGAUGAAACAAUUUGGAGAAGAUUAGAUCGGAAGAGCACACGU
B15: target 2 MT 5'PFS AUA 3'PFS AAC (mixed)
RNA 1: CACCCGUGCAAAAUUGCAGGGGUCUAAAACCUUCUCCAAAUUGUUUCAUCCU
RNA 2: GGGAAUGGAUCCACAUCUACGAAUUCAUAAGGAUGAAACAAUUUGGAGAAGAACAGAUCGGAAGAGCACACGU
B16: target 2 MT 5'PFS UUU 3'PFS CUG (mixed)
RNA 1: CACCCGUGCAAAAUUGCAGGGGUCUAAAACCUUCUCCAAAUUGUUUCAUCCU
RNA 2: GGGAAUGGAUCCACAUCUACGAAUUCUUUAGGAUGAAACAAUUUGGAGAAGCUGAGAUCGGAAGAGCACACGU
B17: target 2 MT 5'PFS GCA 3'PFS CCA (mixed)
RNA 1: CACCCGUGCAAAAUUGCAGGGGUCUAAAACCUUCUCCAAAUUGUUUCAUCCU
RNA 2: GGGAAUGGAUCCACAUCUACGAAUUCGCAAGGAUGAAACAAUUUGGAGAAGCCAAGAUCGGAAGAGCACACGU
B18: target 2 MT 5'PFS GUC 3'PFS ACA (mixed)
RNA 1: CACCCGUGCAAAAUUGCAGGGGUCUAAAACCUUCUCCAAAUUGUUUCAUCCU
RNA 2: GGGAAUGGAUCCACAUCUACGAAUUCGUCAGGAUGAAACAAUUUGGAGAAGACAAGAUCGGAAGAGCACACGU
B19: target 2 MT 5'PFS UUU 3'PFS CUU (mixed)
RNA 1: CACCCGUGCAAAAUUGCAGGGGUCUAAAACCUUCUCCAAAUUGUUUCAUCCU
RNA 2: GGGAAUGGAUCCACAUCUACGAAUUCUUUAGGAUGAAACAAUUUGGAGAAGCUUAGAUCGGAAGAGCACACGU
B20: target 2 MT 5'PFS GUC 3'PFS CAA (mixed)
RNA 1: CACCCGUGCAAAAUUGCAGGGGUCUAAAACCUUCUCCAAAUUGUUUCAUCCU
RNA 2: GGGAAUGGAUCCACAUCUACGAAUUCGUCAGGAUGAAACAAUUUGGAGAAGCAAAGAUCGGAAGAGCACACGU
B21: target 2 MT 5'PFS GUC 3'PFS ACG (mixed)
RNA 1: CACCCGUGCAAAAUUGCAGGGGUCUAAAACCUUCUCCAAAUUGUUUCAUCCU
RNA 2: GGGAAUGGAUCCACAUCUACGAAUUCGUCAGGAUGAAACAAUUUGGAGAAGACGAGAUCGGAAGAGCACACGU
B22: target 2 MT 5'PFS GUC 3'PFS ACC (mixed)
RNA 1: CACCCGUGCAAAAUUGCAGGGGUCUAAAACCUUCUCCAAAUUGUUUCAUCCU
RNA 2: GGGAAUGGAUCCACAUCUACGAAUUCGUCAGGAUGAAACAAUUUGGAGAAGACCAGAUCGGAAGAGCACACGU
B23: target 2 MT 5'PFS UGU 3'PFS AAC (mixed)
RNA 1: CACCCGUGCAAAAUUGCAGGGGUCUAAAACCUUCUCCAAAUUGUUUCAUCCU
RNA 2: GGGAAUGGAUCCACAUCUACGAAUUCUGUAGGAUGAAACAAUUUGGAGAAGAACAGAUCGGAAGAGCACACGU
B24: target 2 MT 5'PFS AUA 3'PFS AAG (mixed)
RNA 1: CACCCGUGCAAAAUUGCAGGGGUCUAAAACCUUCUCCAAAUUGUUUCAUCCU
RNA 2: GGGAAUGGAUCCACAUCUACGAAUUCAUAAGGAUGAAACAAUUUGGAGAAGAAGAGAUCGGAAGAGCACACGU
B25: target 2 MT 5'PFS UUG 3'PFS CUU (mixed)
RNA 1: CACCCGUGCAAAAUUGCAGGGGUCUAAAACCUUCUCCAAAUUGUUUCAUCCU
RNA 2: GGGAAUGGAUCCACAUCUACGAAUUCUUGAGGAUGAAACAAUUUGGAGAAGCUUAGAUCGGAAGAGCACACGU
B26: target 2 MT 5'PFS CGA 3'PFS ACG (mixed)
RNA 1: CACCCGUGCAAAAUUGCAGGGGUCUAAAACCUUCUCCAAAUUGUUUCAUCCU
RNA 2: GGGAAUGGAUCCACAUCUACGAAUUCCGAAGGAUGAAACAAUUUGGAGAAGACGAGAUCGGAAGAGCACACGU
B27: target 2 MT 5'PFS GUC 3'PFS CAG (mixed)
RNA 1: CACCCGUGCAAAAUUGCAGGGGUCUAAAACCUUCUCCAAAUUGUUUCAUCCU
RNA 2: GGGAAUGGAUCCACAUCUACGAAUUCGUCAGGAUGAAACAAUUUGGAGAAGCAGAGAUCGGAAGAGCACACGU

The series addresses T1, EsCas13d, nuclease-dead. Nature of the series: crRNA (strand 1, pre-loaded); Mg2+; 40 mM Tris-HCl pH 7.5, 150 mM NaCl, 6 mM MgCl2, 1 mM DTT, 0.1% Tween-20, 0.2 mg/ml BSA; 25 C; 10 min per concentration, then washed. Particulars: tags: His6-TwinStrep-SUMO cleaved; N-terminal SNAP kept (SNAP-Surface 488); label: 3' end held by stalled T7 RNA polymerase.
In general, Kd refers to the equilibrium constant for the complex coming apart. Read a low Kd as tighter binding. The molecule B1 had a Kd of around 49 nM. The value for B2 was 7.7 ± 0.5 nM. The value for B3 was 35 ± 5 nM; that for B4 was 16 ± 3.2 nM; that for B5 was 3.7 ± 0.6 nM. The value for B6 was 20.5 ± 2.1 nM; that for B7 was 13.4 ± 2.5 nM. Consider B8, for which the Kd is 13.1 ± 1.5 nM. B9 displayed a Kd of 8.6 ± 1.4 nM. Turning to B10, the affinity, expressed as Kd, was 10.3 ± 1.4 nM. The result for B11 reads around 38 nM; that for B12, 10.8 ± 2.6 nM. Molecule B13 displayed a Kd of 5 ± 0.8 nM. The value for B14 was 11.9 ± 1 nM; that for B15 was 5.2 ± 0.9 nM; that for B16 was 7.7 ± 1 nM. Take B17: the Kd was around 27 nM. B18 yielded a Kd of 18.5 ± 2.7 nM. The result for B19 reads 8.9 ± 0.8 nM; that for B20, 9.8 ± 1.7 nM. Turning to B21, the Kd stood at 16.1 ± 1.3 nM.

In the case of B22, the Kd was found to be 28 ± 6 nM. This Kd lies about 1.7-fold higher than the previous one. Regarding B23, binding was put at a Kd of 24 ± 7 nM.

B24 displayed a Kd of 5.9 ± 1.4 nM.

Consider B25, for which the Kd is 15.9 ± 2.1 nM. Molecule B26 had a Kd of 6.9 ± 1 nM. The value for B27 was 17.9 ± 2.4 nM.

These data come from paper PMC10786891, “Massively parallel profiling of RNA-targeting CRISPR-Cas13d”.
